# Data as given in patent publication US20260240958A1, “REPRESSOR FUSION PROTEIN SYSTEMS” (Scribe Therapeutics Inc., priority 2023, published 2026).
# B1: DOMAIN_26749: repressor domain, Ophiophagus hannah, SEQ ID NO 135 (protein)
# chain: STPVTFEDVVVYFTAAEWVHLTNWQRDFYQAVMMETYELVASVAGDGVPMAEDEEGGVERPVWQYIPRGKRRRKTPQPRAD
# modifications: Ophiophagus hannah
# B2: scaffold 316: chimeric gRNA scaffold: scaffold 235 with extended stem loop of scaffold 174; SEQ ID NO 1746 (nucleic acid)
# guide: ACUGGCGCUUCUAUCUGAUUACUCUGAGCGCCAUCACCAGCGACUAUGUCGUAGUGGGUAAAGCUCCCUCUUCGGAGGGAGCAUCAGAG
# modifications: listed as RNA, further chemistry not given here
# How the values were obtained:
# B2M locus [1] = experiment: B2M repression by HLA immunostaining and flow cytometry in HEK293T cells transfected with LTRP:gRNA plasmids
# 6.7/6.8 target dsDNA [2] = experiment: In vitro cleavage rate (kcleave) of CasX 491 RNPs with gRNA variants on labeled dsDNA target; assay type: biochemical; conditions: CasX 491 RNP, v1 gRNA, compared with scaffold 174
# Method: (§1) Double-stranded DNA (dsDNA) targets were formed by mixing the oligos in a 1:1 ratio in 1× cleavage buffer (20 mM Tris HCl pH 7.5, 150 mM NaCl, 1 mM TCEP, […], 10 mM MgCl2), following by heating to 95° C. for 10 minutes, and then allowing the solution to cool to room temperature. CasX ribonucleoproteins (RNPs) were reconstituted with CasX 491 and the indicated gRNAs at a final concentration of 1 μM with 1.2-fold excess of the indicated gRNA in 1× cleavage buffer. RNPs were allowed to form at 37° C. for 10 minutes.
# The effects of various structural and chemical modifications to the gRNA scaffold on the cleavage rate of CasX 491 RNPs were determined. Cleavage reactions were prepared with final RNP concentrations of 200 nM and final target concentrations of 10 nM, and reactions were carried out at 16° C. and initiated by the addition of the labeled target DNA substrate (Table 46). Aliquots of reactions were taken at 0.25, 0.5, 1, 2, 5, and 10 minutes and quenched by adding an equal volume of 95% formamide with 20 mM EDTA. Samples were denatured at 95° C. for 10 minutes and resolved on a 10% urea-PAGE gel. Gels were imaged on a Typhoon™ laser-scanner platform and quantified using ImageQuant™ TL 8.2 image analysis software (Cytiva™). The apparent first-order rate constant of non-target strand cleavage (kcieave-) was determined for each CasX:gRNA combination.
# 6.7/6.8 target dsDNA [3] = experiment: Competent (active) fraction of CasX 491 RNPs formed by each gRNA, equimolar cleavage assay; assay type: biochemical; conditions: CasX 491 RNP, v1 gRNA, spacer 6.7 or 6.8
# Method: as §1
# To determine the competent fraction formed by each gRNA, cleavage reactions were prepared with final RNP concentrations of 100 nM and final target concentrations of 100 nM. Reactions were carried out at 37° C. and initiated by the addition of the labeled target substrate (Table 46). Aliquots were taken at 0.5, 1, 2, 5, 10, and 30 minutes and quenched by adding an equal volume of 95% formamide with 25 mM EDTA. Samples were denatured by heating at 95° C. for 10 minutes and resolved on a 10% urea-PAGE gel. Gels were imaged and quantified as above. […] The plateau of each fit was determined and reported as the active fraction for each RNP in Table 49.
# PCSK9 locus [4] = experiment: Editing (indel rate by NGS) at the PCSK9 locus in HepG2 cells lipofected with CasX 491 mRNA and gRNA; assay type: cell-based, human; conditions: CasX 491 mRNA, v1 gRNAs spacers 6.7 and 6.8, 28 hours
# Method: (§2) Editing at the PCSK9 locus and consequential effects on secreted PCSK9 levels were assessed for conditions using CasX 491 mRNA co-delivered with a PCSK9-targeting gRNA with scaffold variant 174 compared to conditions where a PCSK9-targeting gRNA with scaffold variant 316 was used. 100 ng of in vitro transcribed mRNA coding for CasX 491 with a P2A and mScarlet fluorescent protein was transfected into HepG2 cells with version 1 (v1) of gRNAs 174-6.7, 174-6.8, 316-6.7, and 316-6.8 (see Table 45) using lipofectamine. After a media change, the following were harvested at 28 hours post-transfection: 1) transfected cells were harvested for editing assessment at the PCSK9 locus by NGS (next generation sequencing); and 2) media supernatant was harvested to measure secreted PCSK9 protein levels by ELISA. For editing analysis by NGS, amplicons were amplified from 200 ng of extracted gDNA with a set of primers targeting the PCSK9 locus and processed as described earlier in Example 1. Secreted PCSK9 levels in the media supernatant were also analyzed using a fluorescence resonance energy transfer-based immunoassay from CISBio following the manufacturer's instructions. […]
# (§3) V1 through v6 variants of chemically-modified PCSK9-targeting gRNAs (Table 45) were assessed for their effects on editing potency and consequential effects on secreted PCSK9 levels in vitro. […]
# PCSK9 locus [5] = experiment: Secreted PCSK9 levels in media of HepG2 cells lipofected with CasX 491 mRNA and gRNA; assay type: cell-based, human; conditions: CasX 491 mRNA, v1 gRNAs spacers 6.7 and 6.8, compared with scaffold 174
# Method: as §2, §3
# B2M locus [6] = experiment: B2M knockout (loss of HLA surface presentation, flow cytometry) in HepG2 cells with CasX 491 mRNA and B2M-targeting gRNA; assay type: cell-based, human; conditions: LNPs, CasX 491 mRNA, spacer 7.9 v1, each dose, compared with scaffold 174
# Method: To compare the editing potency of version 0 (v0) and version 1 (v1) of B2M-targeting gRNAs, ~6E4 HepG2 hepatocytes were seeded per well of a 96-well plate. 24 hours later, seeded cells were co-transfected using lipofectamine with 100 ng of in vitro transcribed mRNA coding for CasX 491 and different doses (1, 5, or 50 ng) of either v0 or v1 of the B2M-targeting gRNA containing scaffold variant 174 and spacer 7.37 (see Table 45).
# (§4) ~50,000 HepG2 cells, cultured in DMEM/F-12 media containing 10% FBS and 1% PenStrep, were seeded per well in a 96-well plate. The next day, seeded cells were treated with varying concentrations of LNPs, which were prepared in six 2-fold serial dilutions starting at 250 ng. These LNPs were formulated to encapsulate CasX 491 mRNA and a B2M-targeting gRNA incorporating either scaffold variant 174 or 316 with spacer 7.9 (v1; see Table 45). Media was changed 24 hours after LNP treatment, and cells were cultured for six additional days prior to harvesting for gDNA extraction for editing assessment at the B2M locus by NGS and B2M protein expression analysis via HLA immunostaining, followed by flow cytometry using the Attune NxT flow cytometer. Briefly, for editing assessment, amplicons were amplified from 200 ng of extracted gDNA with primers targeting the human B2M locus and processed as described in Example 1.
# human B2M locus = experiment: Indel rate by NGS at the human B2M locus in HepG2 cells treated with LNPs (CasX 491 mRNA and gRNA); assay type: cell-based; conditions: CasX 491 mRNA
# Method: as §4
molecule,measurement,setting,value
B1,B2M repression as second repressor domain in LTRP6 configuration,B2M locus [1]; 4 days post-transfection,highest level of B2M repression at 4 days post-transfection
same,B2M repression (HLA-negative cells),"B2M locus [1]; gRNA scaffold 174 spacer 7.165, LTRP6 = ZIM3 first, named domain second repressor domain, day not stated in text (Tables 16-18, days 4-13)",~ 83.800%
B2,cleavage rate,6.7/6.8 target dsDNA [2]; spacer 6.7,marginally faster cleavage
same,cleavage rate,6.7/6.8 target dsDNA [2]; spacer 6.8,nearly twice as quickly
same,active fraction higher than for scaffold 174,6.7/6.8 target dsDNA [3],25-30%
same,increase in editing rate at the PCSK9 locus over scaffold 174,PCSK9 locus [4],~ 10 percentage point
same,reduction of PCSK9 secretion,PCSK9 locus [5],more effective reduction of PCSK9 secretion
same,editing potency at the B2M locus (loss of HLA surface presentation),B2M locus [6],higher editing potency at the B2M locus
same,editing potency at the B2M locus (indel rate by NGS),"human B2M locus; spacer 7.9 v1, each dose, compared with scaffold 174",higher editing potency at the B2M locus
same,editing level at the B2M locus compared with scaffold 174,"human B2M locus; spacer 7.9 v1, highest dose of 250 ng",nearly two-fold higher
